We go through six molecules from US20230183665A1, “THERMOSTABLE GLUCOCEREBROSIDASE” (TEIKYO UNIVERSITY, priority 2020, published 2023).

Data set [1] addresses T1, RGC1 (Oryza sativa subsp. japonica, UniProt Q8L7J2).
T1 construct: The resulting solution was used as rice-derived glucocerebrosidase (RGC1); from tissue; host or cells: stems of rice (Oryza sativa L. cv. Nipponbare)
T1 sequence (Q8L7J2 38-521 limits assumed): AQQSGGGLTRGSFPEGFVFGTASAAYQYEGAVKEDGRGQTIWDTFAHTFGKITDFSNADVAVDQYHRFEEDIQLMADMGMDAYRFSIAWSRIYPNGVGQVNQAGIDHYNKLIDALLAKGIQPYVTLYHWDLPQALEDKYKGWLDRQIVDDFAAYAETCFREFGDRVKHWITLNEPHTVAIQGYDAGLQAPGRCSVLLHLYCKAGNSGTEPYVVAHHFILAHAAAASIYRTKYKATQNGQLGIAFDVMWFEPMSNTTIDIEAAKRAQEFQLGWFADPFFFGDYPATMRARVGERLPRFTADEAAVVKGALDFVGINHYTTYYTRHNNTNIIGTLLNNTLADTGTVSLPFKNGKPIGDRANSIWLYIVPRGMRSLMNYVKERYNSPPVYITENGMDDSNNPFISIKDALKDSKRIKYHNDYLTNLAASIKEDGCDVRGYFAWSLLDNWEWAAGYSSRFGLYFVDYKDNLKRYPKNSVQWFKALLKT
As to the kind of experiment: Substrate specificity of RGC1: ceramide generated from glucosylceramide or synthetic β-glucoside substrates (Example 3). In kind it is biochemical, rice (Oryza sativa L. cv. Nipponbare). To be noted: enzyme RGC1, 12.5 μM substrate, pH 5.5, 37° C., 15 minutes; for Relative activity (%): activity with d18:1(4E)-C8:0-GluCer defined as 100, average of five tests. As to the method:
(§1) The glucocerebrosidase activity of the fraction was measured as follows: a predetermined amount of sample was added to a 50 mM acetate buffer solution (pH 5.5) containing 100 μM glucosylceramide (cerebroside B), 0.1% Tween 20, and 0.05% sodium cholate, and incubated at 37° C. for 15 minutes. Subsequently, a 4-fold amount of ethanol was added to the obtained reaction solution, mixed therewith, and then centrifuged at 15000 rpm for 20 minutes. The centrifuged supernatant was subjected to high-performance liquid chromatography analysis. In the high-performance liquid chromatography analysis, the sample was injected to TSKgel ODS-120T column (4.6 mm×30 cm), and a solvent having an ethanol concentration of 83% was flowed at a flow rate of 0.8 mL/min, followed by detection in a UV detector (ultraviolet absorption wavelength: 215 nm) to thereby measure the amount of ceramide newly generated through enzymatic reaction. The amount of ceramide was determined by using, as a standard, ceramide generated from cerebroside B by imiglucerase (manufactured by Sanofi S. A.), human-derived glucocerebrosidase. The molecular weight of the generated ceramide was examined by negative LC-MS (manufactured by Agilent Technologies, Inc.) to thereby confirm that it was ceramide generated from cerebroside B (ESI-MS m/z: 564.5[M-H]^−). Glucocerebrosidase activity per mL of the enzyme solution was calculated when the amount of the enzyme that generated 1 μmol of ceramide for 1 minute in the enzymatic reaction solution was defined as 1 unit (U).
RGC1 obtained in Example 2 was added to 12.5 μM glucosylceramide (one of the 12 animal-derived, plant-derived, or filamentous fungus-derived ones in Table 2 below) or synthetic β-glucoside, and a 50 mM acetate buffer solution (pH 5.5) containing 0.1% Tween 20 and 0.05% sodium cholate, and incubated at 37° C. for 15 minutes. Subsequently, a 4-fold amount of ethanol was added to the obtained reaction solution, mixed therewith, and then centrifuged under a condition of 15000 rpm for 20 minutes. The amount of ceramide in the supernatant was measured by high-performance liquid chromatography using various reverse-phase columns to thereby determine glucocerebrosidase activity. The amount of ceramide was determined by using, as a standard, ceramide generated from the glucosylceramide by imiglucerase. The glucocerebrosidase activity was determined as relative activity when activity in the case of using animal-derived glucosylceramide d18:1(4E)-C8:0-GluCer as a substrate was defined as 100 (rightmost column of Table 2 below). This test was conducted five times, and average relative activity was determined therefrom.

Data set [2] in a line: Optimum temperature for glucocerebrosidase activity (Examples 5, 12, 20). In kind it is biochemical. As to the method:
as §1
RGC1 obtained in Example 2 and imiglucerase were each added to a 50 mM acetate buffer solution (pH 5.5) containing 100 μM glucosylceramide (cerebroside B), 0.1% Tween 20, and 0.05% sodium cholate, and incubated at each temperature for 15 minutes. Subsequently, a 4-fold amount of ethanol was added to the obtained reaction solution, mixed therewith, and then centrifuged under a condition of 15000 rpm for 20 minutes. The supernatant was subjected to high-performance liquid chromatography analysis to measure the amount of ceramide generated through enzymatic reaction. The high-performance liquid chromatography analysis was carried out in the same manner as in Example 2. The amount of ceramide and enzymatic activity were also calculated in the same manner as in Example 2. A temperature that attained the highest glucocerebrosidase activity was regarded as the optimum temperature. This test was conducted three times, and an average value was determined therefrom.
The optimum temperatures for the glucocerebrosidase activity of SGC1 obtained in Example 11 and imiglucerase were confirmed by the same method as in Example 5.
Enzyme extracts derived from various plants which were obtained in accordance with Example 19, the purified rice-derived RGC1 mentioned above and the purified soybean-derived SGC1 mentioned above were each added to a 50 mM sodium acetate buffer solution (pH 5.5) containing 100 μM glucosylceramide (cerebroside B), 0.1% Tween 20, and 0.05% sodium cholate, and incubated at each temperature for 15 minutes. Subsequently, a 4-fold amount of ethanol was added to the obtained reaction solution, mixed therewith, and then centrifuged at 15000 rpm for 20 minutes. The supernatant was subjected to high-performance liquid chromatography analysis to measure the amount of ceramide generated through enzymatic reaction. The high-performance liquid chromatography analysis was carried out in the same manner as in Example 5. The amount of ceramide and enzymatic activity were also calculated in the same manner as in Example 5. As a result, a temperature that attained the highest glucocerebrosidase activity was regarded as the optimum temperature. This test was conducted three times, and an average value was determined therefrom.

Data set [3] is described as follows: Thermostability: relative residual glucocerebrosidase activity after incubation at pH 5 and pH 7 (Examples 6, 13). In kind it is physicochemical. To be noted: 45° C.; pH 5 for 1 to 31 hours, pH 7 for 0.3 to 5 hours; FIGS. 3 and 4. Here is the method:
The glucocerebrosidase activity of the fraction was measured as follows: a predetermined amount of sample was added to a 50 mM acetate buffer solution (pH 5.5) containing 100 μM glucosylceramide (cerebroside B), 0.1% Tween 20, and 0.05% sodium cholate, and incubated at 37° C. for 15 minutes. Subsequently, a 4-fold amount of ethanol was added to the obtained reaction solution, mixed therewith, and then centrifuged at 15000 rpm for 20 minutes. The centrifuged supernatant was subjected to high-performance liquid chromatography analysis. […] The amount of ceramide was determined by using, as a standard, ceramide generated from cerebroside B by imiglucerase (manufactured by Sanofi S. A.), human-derived glucocerebrosidase. […] Glucocerebrosidase activity per mL of the enzyme solution was calculated when the amount of the enzyme that generated 1 μmol of ceramide for 1 minute in the enzymatic reaction solution was defined as 1 unit (U).
RGC1 obtained in Example 2 and imiglucerase were each incubated at pH 5 simulating lysosome (50 mM acetate buffer solution (pH 5.0) containing 0.1% Triton X-100 and 0.05% sodium cholate) at 37° C. for 6 to 106 hours or at pH 7 simulating cytoplasm (50 mM potassium phosphate buffer solution (pH 7.0) containing 0.1% Triton X-100 and 0.05% sodium cholate) at 37° C. for 4 to 48 hours. […] This test was conducted three times, and an average value was determined therefrom. […]

[4] abbreviates: Example 12, same method as Example 5.
Where [5] appears, read: Example 20, 100 μM cerebroside B, pH 5.5, 15 minutes at each temperature, average of three tests.

For the molecule `CCCCCCCCCCCCCC/C=C/[C@@H](O)C(=O)N[C@@H](CO[C@@H]1O[C@H](CO)[C@@H](O)[C@H](O)[C@H]1O)[C@H](O)/C=C/CC/C=C(\C)CCCCCCCCC` [d19:2(4E,8E,9Me)-C18h:1-GluCer, (4E,8E)-N-D-2′-hydroxy-(E)-3′-octadecenoyl-1-O-β-D-glucopyranosyl-9-methyl-4,8-sphingadienine], the “Relative activity (%)” value in data set [1] was 113.2%.
For the molecule `CCCCCCCCCCCCC/C=C/[C@@H](O)[C@H](CO[C@@H]1O[C@H](CO)[C@@H](O[C@@H]2O[C@H](CO)[C@H](O)[C@H](O[C@]3(C(=O)O)C[C@H](O)[C@@H](NC(C)=O)C([C@H](O)[C@H](O)CO)O3)[C@H]2O)[C@H](O)C1O)NC(=O)CCCCCCCCCCCCCCCCC` (some centres unmarked) [d18:1(4E)-C18:0-GM3], in data set [1], the “reaction of RGC1 with the substrate (in words)” value is reported as “rarely reacted”.
Consider `CCCCCCCCCCCCCC[C@@H](O)C(=O)N[C@@H](CO[C@@H]1O[C@H](CO)[C@@H](O)[C@H](O)[C@H]1O)[C@H](O)/C=C/CC/C=C(\C)CCCCCCCCC` [d19:2(4E,8E,9Me)-C16h:0-GluCer, (4E,8E)-N-D-2′-hydroxypalmitoyl-1-O-β-D-glucopyranosyl-9-methyl-4,8-sphingadienine], for which the “Relative activity (%)” value in data set [1] amounted to 116.7%.
`O=[N+]([O-])c1ccc(O[C@@H]2O[C@H](CO)[C@@H](O)[C@H](O)[C@H]2O)cc1` [pNP-β-glucoside, 4-nitrophenyl-β-D-glucopyranoside]: in data set [1], the “reaction of RGC1 with the substrate (in words)” value is “rarely reacted” and the “Relative activity (%)” value is 2.5%.

B1: Imiglucerase: human-derived glucocerebrosidase produced in Chinese hamster ovary cells by gene recombination (Sanofi S. A.), belonging to GH30 (protein, UniProt P04062 40-536, looked up)
Lysosomal acid …: ARPCIPKSFGYSSVVCVCNATYCDSFDPPTFPALGTFSRYESTRSGRRMELSMGPIQANHTGTGLLLTLQPEQKFQKVKGFGGAMTDAAALNILALSPPAQNLLLKSYFSEEGIGYNIIRVPMASCDFSIRTYTYADTPDDFQLHNFSLPEEDTKLKIPLIHRALQLAQRPVSLLASPWTSPTWLKTNGAVNGKGSLKGQPGDIYHQTWARYFVKFLDAYAEHKLQFWAVTAENEPSAGLLSGYPFQCLGFTPEHQRDFIARDLGPTLANSTHHNVRLLMLDDQRLLLPHWAKVVLTDPEAAKYVHGIAVHWYLDFLAPAKATLGETHRLFPNTMLFASEACVGSKFWEQSVRLGSWDRGMQYSHSIITNLLYHVVGWTDWNLALNPEGGPNWVRNFVDSPIIVDITKDTFYKQPMFYHLGHFSKFIPEGSQRVGLVASQKNDLDAVALMHPDGSAVVVVLNRSSKDVPLTIKDPAVGFLETISPGYSIHTYLWRRQ
modifications: imiglucerase
notes: human-derived glucocerebrosidase produced in Chinese hamster ovary cells by gene recombination (Sanofi S. A.), belonging to GH30
As for B1, the “Optimum temperature (° C.)” value in data set [2] (Example 5, 100 μM cerebroside B, pH 5.5, 15 minutes at each temperature, average of three tests) is 42.5 °C; in data set [2] (setting [4]), 42.5 °C; in data set [2] (setting [5]), 42.5 °C.

B2: SGC1: soybean-derived glucocerebrosidase purified from soybean stems; identical to β-glucosidase 40, belongs to GH1; SEQ ID NO: 2 (protein)
chain: MAFRGGTMLILTMMALLEIQICSSEINRGNFPNGFVFGTASSAFQYEGAVKEDGRGPSVWDTFSHTFGKIIDFSNADVAVDQYHRYEEDIQLMKDMGMDAYRFSISWSRIFPNGYGQINQAGVDHYNKLINALLAKGIEPYVTLYHWDLPQALENKYSGWLNASIIMDFATYAETCFQKFGDRVKHWITFNEPHTFATQGYDVGLQAPGRCSILLHLFCRAGNSATEPYIVAHNVLLSHATVADIYRKKYKKIQGGSLGVAFDVIWYEPLTNTKEDIDAAQRAQDFQLGWFLDPLMFGDYPSSMRTRVGSRLPKFSQSEAALVKGSLDFVGINHYTTFYAKDNSTNLIGTLLHDSIADSGAVTLPFNGTKAISERASSIWLYIVPQSMRSLMIYIKQKYGNPPVYITENGMDDPNSIFISIKDALKDEKRIRYHTGYLSYLLASIKDGCNVKGYFVWSLLDNWEWSAGYTSRFGLYFVDYKDNLKRYPKQSVEWFKNFLKPTK
modifications: Oryza sativa L. cv. Nipponbare
Take B2: the “Optimum temperature (° C.)” value in data set [2] (setting [4]) and in data set [2] (setting [5]) was 64.0 °C in each case. The “stability (relative residual activity) compared with imiglucerase” value in data set [3] is listed as “evidently much superior in stability to imiglucerase”.
